Measured values from the nanobody polyreactivity screen of Harvey et al. (2022).

Assay: yeast display, Sf9 membrane polyspecificity reagent, FACS + sequencing; frameworks hold sequencing errors
Summary of the method: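 Sorting gates, low and high (top ~1%), were placed on anti-HA fluorescence to track expression and on streptavidin fluorescence to track reagent binding. A clone's polyreactivity label is taken from the gate it came out of. The reagent was 10% biotinylated, detergent-solubilized Sf9 membrane, applied for 1 hour at 4 °C to galactose-induced yeast display cells.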

Sequence	polyreactivity (PSR sort gate)
QVQLVESGGGLVQAGGSLRLSCAACGSIFDYYTMGWYRQAPGKEREFVAGISDSGGSTNYADSVKGRFTISRDNAKNTVYLQINSLKPEDTAVYYCNAEYVGWFYKYDYWGQGTQVTVSS	high polyreactivity
QVQLVESGGGLVQAGGSLRLSCAASGRIFTPYAMGWYRQAPGKEREFVATISFRGDSTYYADSVKGRFTISRDNAKNTVYLQMNSLKPEDTAVYYCNAATNRRTSDYWGQGTQVTVSS	high polyreactivity
QVQLVESGGGLVHAGGSLRLSCAASGLIFRGYAMGWYRQAPGKERELVAAISKSGGSTYYADSVKGRFTISRDNAKNTVYLQLNSLKPEDTAVYYCITDYVWKYFLSSQYDYWGQGTQVTVSS	high polyreactivity
QVQLVESAAGLVQAGGSLRLSCAASGSILKLNAMGWYRQAPGKERELVAAISRGGRTYYADSVKGRFTISRDNAKNTVYLQMHSLKPEDTAVYYCAADACLLGPGDFNYWGQGTQVTVSS	low polyreactivity
QVQLVESGGGLVKAGGSLRLSCAASGRNFWFNAMGWYRQAPGKERELVAAIRNRGGSTYYADSVKGRFTISRDNAKNTVYLQMNSLKPEDTAVYYCARAPEGTGGKYGYWGQGTQVTVSS	high polyreactivity
QVQLVESGGGLVQAGGSRRLSCAASGRTFFYNAMGWYRQAPGKERELLAAISYSGGSTYYADSVKGRFTISRDNAKNTVYLQMNSLKPEDTAVYYCAARDKTRSVRRTGMDYWGQGTQVTVSS	high polyreactivity
QVQLVESGGGLVQAGGSLRLSCAASGSIFPSYAMGWYRQAPGKERELVAAISRSAGSTYYADSVKGRFTISRDNAKNTVYLQMNSLKPEVTAVYYCAADVYSSRYRYDYWGQGTQVTVSS	low polyreactivity
QVQLVESGGGLVQAGGSLRLSCAASGITFYYYTMGWYRTAPGKEREFVAVISGSGGSTYYADSVKGRFTISRDNAKNTVYLQMNSLKPEDTAVYYCAARNSFLAYFVGLIQEDDYWGQGTQVTVSS	high polyreactivity
QVQLVESGGGLVQAGGSLRLSCAASGRIFVDYAMGWYRQAPGKERELVAAITRSGDRTYYADSVKGRFTISRDNAKNTVYLQMNSLKPEDTAVYYCATVYPGYVWGQGTQVTVSS	low polyreactivity
QVQLVESGGGLVQAGGSLRLSCAASGSTFVVNAMGWYRQAPGKERELVAAISWSGASTYYADSVKGRFTISRDNAKNTVYLQMKSLIQEDTAVYYCAADYSHYFYYYPSFVKFDYWGQGTQVTVSS	high polyreactivity
QVQLVESGGGLVQAGGSLRLSCAASGRIFVINTMGWYRQAPGKERELVAAISRGGSTNYADSVKGRFTISRDNAKNTVYLQMNSLKPEDTAVYDCAATGYILFAGCGYDYWGEGTQVTVSS	low polyreactivity
QVQLVESGGGLVQAGGSLRLSCAASGRTFKSYAMGWYRQAPGKERELVAAITWSGGSTYYADSVKGRFTISRDNAKNTVYLQMNSLKPEDTAVYYCAADSVYYYWYGYDYWGQGTQVTVSS	low polyreactivity
QVQLVESGGGLVQAGGSLRLSCAASGYTFNYYAMGWYRQAPGKERELVAAIRSGGSTTYADSVKGRFTISRDNAKNTVYLQMNSLKPEDTAVYYCNADAGYWYRPAYDYWGQGTQVTVSS	low polyreactivity
QVQLVDSGGGLVQAGGSRRLSCADSGSIFGDYDMGWYRQAHGKERELVATIRYSGGTTYYADSVKGRFTISRDNAKNTVYLQLISLKPEDTAVYYCNARVWLFWTSELDSWGQGTQVTVSS	low polyreactivity
QVQLVESGGGLVQAGGSLRLSCAASGHIFFYYTMGWYRQAPGKERELVAGITIGGSTNYADSVKGRFTISRDNAKNTVYLQMNSLKPEDTAVYYCNVVNYVYIYSYWEYYYWGQGTQVTVSS	low polyreactivity
QVHLVESGGGLVQAGGRLRLSCAASGFTLRYYAMGWYRQAPGKESELVATINRSGASTYYADTVKGRFTISRDNAKNTVYLQMNSQKPEDTAVYYCKTATSRAYRYDYWGQGTQVTVSS	low polyreactivity

Sequence	polyreactivity (PSR sort gate)
QVQLVESGGGLVQAGGTLRLSCAASGFTFGFKAMGWYRQAPGKEREFVASITYRGGSTYYADSVKGRFTISRDNAKNSVYLQMNSLKPEDTAVYFCATVSTRLRDYWGQGTQVTVSS	high polyreactivity
QVQLVESGGGLVQAGGSLRLSCAASGSTFYAYAMGWYRQAPGKERELVAAISSSGGSTYYADSVKGRFTISRDNAKNTVYLQMNSLKPEDTAVYYCAAYDSVQKYWILGFDYWGQGTQVTVSS	low polyreactivity
QVQLEESGGGLVQAGGSLRLSCAASGRTFYVYTMGWYRQAPRKERELFAGISYSGGSTYYADSVKGRFTISRDTAKKTVYLQKYSLKPEDTAVYYCNAELYFPYFDGKTRHGGYWGQGSQVTVSS	low polyreactivity
QVQLVESVGGLDQAGGSLRLSCAASGFTFYTNAMGWYRQAPGKEREFVAAISWSGTGTYYADSVKGRFTISRDNAKNTVYLQMYSLIPDDTAVYYCAARDRWRGGRKFDYWGQGTQVTVSS	high polyreactivity
QVQLVESGGGLVQAGGSLRLSCAASGSTFSWYTMGWYRQAPGKERELVAAITRDGSTYYADSVKGRFTISRDNAKNTVYLHMNSLKPEDTAVYYCAADLSYWRGGHSRNYWGQGTQVTVSS	low polyreactivity
QVQLVDSGGGLVQAGGSLRLSCAASGLIFSDYAMGWYRPAPGKERELVAAIRSGGRTYYADSVKGRFTISRDNATNTVYLEMNSLKPEDTAVYFCNKLYRRYPVPREYDYWGQGTQVTVSS	high polyreactivity
QVQLEESGGGLVQAGGSLRLSCAASGRIIGGYAMGWYRQAPGKERELVAGIRGGTSTYYADSVKGRFTISRDNAKNTVYLQMNSQKPEDTAVYYCNARSLGRKYDYWGQGTQVTVSS	low polyreactivity
KVQLVESGAGLVQAGGSLRLSCAASGSTFAQYAMGWYRQAPGKERELVAAISRGGGSTYYADSVKGRFTISRDTAKNTVYLQMHSLKPEDTAVYYCAADPRYRVTLGFDYWGQGTQVTVSS	high polyreactivity
QVHHVESGGGLVQAGGCLRLSCAASGFIVRENAMGWYRQAPGKERELVAAISKSGGRTYYADSVKGRFTISRDNAKNTVYLQMNSLKPEDTAVFYCAAYPSYTIHPAGDYWGQGTQVTVSS	high polyreactivity
QVQLVESGGGLLQAGGSLRLSCASSGITFGDNVMGWYRQAPGKERELVAAISRIGDDTYYADSVKGRFTISRDNAKNTVFFQMNSLKPEDTAVYYCATDFTQRDYYNYGYWGQRTQVTVSS	low polyreactivity
QVQLVESGGGLVQAGGSLRLSCAASGFTFKYNAMGWYRHAPGKERELVAAISSSDGTNYADSVKGRFTISRDNAKNTVYLQMNSLKQEDTAVYYCAADYFYLEDYYYWGQGSQVTVSS	low polyreactivity
QVQLVESGGGLVQAGGSLRLSCAASGSTFYDYVMGWYRKAPGKERELVAAITGDGTTDYADSVKGRFTISRDNAKNTVYLQMNSLKPEDTAVYYCNADISLDYDYWGQGTQVTVSS	low polyreactivity
QVQLVESGGGLVQAGGSLRLSCAASGSIFSANVMGWYRQAPGKERELVAAITRGGGTYYADSVKGRFTISRDNAKNTVYLQMNSLKPEDTAVYYCNDDYTLSVYGTTYWYNYWGQGTQVTVSS	high polyreactivity
QVQLVESGGGLVQAGGSLRLTCAASGYTFWLNGMGWYRHAPGKERELVAAISSSGGSTYYADSVKGRFTISRDNAKNTVYLQMNSLKPEDTAVYDCAVDAYWRHWYYPYESHHDYWGQGTQVTVST	low polyreactivity
QVQLVESGGGLVQAGGSLRLSCAASGFTLGGNAMGWYRQAPGKERELVAAITFSGGSTYYADSVKGRFTISRDNAKNIVYLQMNSLKPEDTAVYYCAKTHGYYYYYTYDYWGQGTQVTVSS	low polyreactivity
